Assay results: patent US6869925 (Amgen, dated 2005)

Columns and labels:
[1] = target: SLPI binding sites on U937 cells (human monocyte cell line; intact cells, PMA-induced cells or plasma membranes) (human); assay: 125I-SLPI saturation binding, U937 cells minus PMA, *SLPI at 5120 pM
[2] = target: SLPI binding sites on HuT78 cells (human T cell line) (human); assay: competition with 125I-SLPI, intact HuT78 cells, cold SLPI at 860 nM
[3] = target: SLPI binding sites on U937 cells (human monocyte cell line; intact cells, PMA-induced cells or plasma membranes) (human); assay: 125I-SLPI saturation binding, U937 cells minus PMA, *SLPI at 80 pM
[4] = target: SLPI binding sites on U937 cells (human monocyte cell line; intact cells, PMA-induced cells or plasma membranes) (human); assay: 125I-SLPI saturation binding, U937 cells plus PMA, *SLPI at 10,240 pM
[5] = target: SLPI binding sites on U937 cells (human monocyte cell line; intact cells, PMA-induced cells or plasma membranes) (human); assay: competition with 125I-SLPI, intact U937 cells, competitor at 0 nM
[6] = target: SLPI binding sites on U937 cells (human monocyte cell line; intact cells, PMA-induced cells or plasma membranes) (human); assay: 125I-SLPI saturation binding, U937 cells plus PMA, *SLPI at 20,480 pM
[7] = target: SLPI binding sites on U937 cells (human monocyte cell line; intact cells, PMA-induced cells or plasma membranes) (human); assay: 125I-SLPI saturation binding, intact U937 cells, *SLPI at 2560 pM
[8] = target: SLPI binding sites on HuT78 cells (human T cell line) (human); assay: 125I-SLPI saturation binding, intact HuT78 cells, *SLPI at 40 pM
[9] = target: SLPI binding sites on U937 cells (human monocyte cell line; intact cells, PMA-induced cells or plasma membranes) (human); assay: 125I-SLPI saturation binding, U937 cells plus PMA, *SLPI at 5,120 pM
[10] = target: SLPI binding sites on U937 cells (human monocyte cell line; intact cells, PMA-induced cells or plasma membranes) (human); assay: Scatchard plot of 125I-SLPI saturation binding, intact U937 cells
[11] = target: SLPI binding sites on U937 cells (human monocyte cell line; intact cells, PMA-induced cells or plasma membranes) (human); assay: competition with 125I-SLPI, intact U937 cells, cold SLPI at 8.2 nM
[12] = target: SLPI binding sites on U937 cells (human monocyte cell line; intact cells, PMA-induced cells or plasma membranes) (human); assay: 125I-SLPI saturation binding, U937 cells minus PMA, *SLPI at 1280 pM
[13] = target: SLPI binding sites on U937 cells (human monocyte cell line; intact cells, PMA-induced cells or plasma membranes) (human); assay: competition with 125I-SLPI, U937 plasma membranes, competitor at 0 nM
[14] = target: SLPI binding sites on HuT78 cells (human T cell line) (human); assay: Scatchard plot of 125I-SLPI saturation binding, intact HuT78 cells
[15] = target: SLPI binding sites on HuT78 cells (human T cell line) (human); assay: competition with 125I-SLPI, intact HuT78 cells, competitor at 84 nM
[16] = target: SLPI binding sites on U937 cells (human monocyte cell line; intact cells, PMA-induced cells or plasma membranes) (human); assay: competition with 125I-SLPI, intact U937 cells, competitor at 2750 nM
[17] = target: SLPI binding sites on HuT78 cells (human T cell line) (human); assay: competition with 125I-SLPI, intact HuT78 cells, competitor at 2750 nM
[18] = target: SLPI binding sites on U937 cells (human monocyte cell line; intact cells, PMA-induced cells or plasma membranes) (human); assay: competition with 125I-SLPI, intact U937 cells, cold SLPI at 0.00 nM
[19] = target: SLPI binding sites on U937 cells (human monocyte cell line; intact cells, PMA-induced cells or plasma membranes) (human); assay: competition with 125I-SLPI, intact U937 cells, competitor at 8.2 nM
[20] = target: SLPI binding sites on U937 cells (human monocyte cell line; intact cells, PMA-induced cells or plasma membranes) (human); assay: competition with 125I-SLPI, intact U937 cells, cold SLPI at 0.80 nM
[21] = target: SLPI binding sites on HuT78 cells (human T cell line) (human); assay: competition with 125I-SLPI, intact HuT78 cells, cold SLPI at 2.6 nM
[22] = target: SLPI binding sites on U937 cells (human monocyte cell line; intact cells, PMA-induced cells or plasma membranes) (human); assay: competition with 125I-SLPI, intact U937 cells, cold SLPI at 2750 nM
[23] = target: SLPI binding sites on U937 cells (human monocyte cell line; intact cells, PMA-induced cells or plasma membranes) (human); assay: 125I-SLPI saturation binding, intact U937 cells, *SLPI at 5120 pM
[24] = target: SLPI binding sites on HuT78 cells (human T cell line) (human); assay: competition with 125I-SLPI, intact HuT78 cells, cold SLPI at 0.25 nM
[25] = target: SLPI binding sites on HuT78 cells (human T cell line) (human); assay: competition with 125I-SLPI, intact HuT78 cells, Kd by Cheng-Prusoff
[26] = target: SLPI binding sites on U937 cells (human monocyte cell line; intact cells, PMA-induced cells or plasma membranes) (human); assay: 125I-SLPI saturation binding, U937 cells plus PMA, *SLPI at 320 pM

Sequence of serine leukocyte protease inhibitor (SLPI) (P03973 26-132): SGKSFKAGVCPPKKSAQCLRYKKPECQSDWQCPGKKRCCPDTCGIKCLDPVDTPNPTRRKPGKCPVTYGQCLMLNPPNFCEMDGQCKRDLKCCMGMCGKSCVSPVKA

bound *SLPI (pM) [1]: 748 pM
bound per free [1]: 0.171
sites bound per cell (sites per cell) [1]: 45100
specific cpm [1]: 7990 cpm
% *SLPI BOUND [2]: 8.7%
bound *SLPI (pM) [3]: 37 pM
bound per free [3]: 0.86
sites bound per cell (sites per cell) [3]: 2230
specific cpm [3]: 400 cpm
bound pM [4]: 274 pM
bound per free [4]: 0.028
sites bound per cell (sites per cell) [4]: 16500
specific cpm [4]: 2930 cpm
% *SLPI BOUND [5]: 109%
bound pM [6]: 255 pM
bound per free [6]: 0.0126
sites bound per cell (sites per cell) [6]: 15400
specific cpm [6]: 2720 cpm
bound *SLPI (pM) [7]: 339 pM
bound per free [7]: 0.153
sites bound per cell (sites per cell) [7]: 20400
specific cpm [7]: 13500 cpm
specific cpm [8]: 0 cpm
bound pM [9]: 135 pM
bound per free [9]: 0.027
sites bound per cell (sites per cell) [9]: 8130
specific cpm [9]: 1440 cpm
Kd [10]: 2 nM
% *SLPI BOUND [11]: 24%
bound *SLPI (pM) [12]: 396 pM
bound per free [12]: 0.448
sites bound per cell (sites per cell) [12]: 23900
specific cpm [12]: 4230 cpm
CPM *SLPI BOUND [13]: 18700 cpm
Kd [14]: 2 nM
% *SLPI BOUND [15]: 27%
% *SLPI BOUND [16]: 4%
% *SLPI BOUND [17]: 0%
% *SLPI BOUND [18]: 94%
% *SLPI BOUND [19]: 22%
% *SLPI BOUND [20]: 77%
% *SLPI BOUND [21]: 56%
% *SLPI BOUND [22]: 0.5%
bound *SLPI (pM) [23]: 379 pM
bound per free [23]: 0.08
sites bound per cell (sites per cell) [23]: 22800
specific cpm [23]: 15100 cpm
% *SLPI BOUND [24]: 69%
Kd [25]: 2 nM
bound pM [26]: 65 pM
bound per free [26]: 0.255
sites bound per cell (sites per cell) [26]: 3920
specific cpm [26]: 698 cpm
Substance: serine leukocyte protease inhibitor (SLPI) (from UniProt P03973 26-132)
